The values below come from PMC12197737.

Several values for one entry are separate records, joined by “and”; a condition that tells them apart may be missing. Identical values can stand only once.

The test has as its target recombinant TSWV-N protein (tomato spotted wilt virus nucleocapsid N protein) (Tomato spotted wilt virus (TSWV)). Briefly: cross-linking.

Broadly, the stoichiometry N is a count of units in the complex or per binding partner. Regarding “recombinant TSWV-N protein (tomato spotted wilt virus nucleocapsid N protein) (natural protein)”, the stoichiometry N is 2 and 3.
